For the assay, the target named is angiotensin AT1 receptor (on human umbilical vein endothelial cells) (human) (UniProt P30556). The assay can be described thus: cell-based or functional assay.
UniProt P30556, sequence (P30556 whole entry): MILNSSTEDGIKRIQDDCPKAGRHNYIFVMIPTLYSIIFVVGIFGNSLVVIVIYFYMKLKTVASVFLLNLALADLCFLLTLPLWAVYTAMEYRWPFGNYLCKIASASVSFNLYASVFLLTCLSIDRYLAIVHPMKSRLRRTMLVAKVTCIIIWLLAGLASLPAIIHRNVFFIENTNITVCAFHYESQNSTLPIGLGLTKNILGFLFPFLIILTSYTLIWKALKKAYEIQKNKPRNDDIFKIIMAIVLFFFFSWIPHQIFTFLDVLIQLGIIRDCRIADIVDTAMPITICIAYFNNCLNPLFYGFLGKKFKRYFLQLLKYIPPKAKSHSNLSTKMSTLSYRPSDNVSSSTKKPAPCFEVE

On to “des-aspartate-angiotensin I (from UniProt P01019 26-34) (peptide)”, for which the release of PGE2 and PGI2 from HUVEC (effective concentration of DAA-I) stood at 100 pM.

Source of the values: US20170274038A1.
